Assay results from article doi:10.1101/2024.09.12.612615.

Molecular target: Asp64 (UniProt position 64, EGCPTDSIKVA)
Experiment: kinetics
Settings: 28 °C; reduced [4Fe-4S] cluster undergoing air oxidation

## [4Fe-4S] ferredoxin (BtFd) (Bacillus thermoproteolyticus)
  pKa: between a pH of 6.0 to 7.0
